Experimental findings from the supplement of paper PMC10567573 are described below.

± gives the standard deviation.

This series in a line: protein stability index of a GFP-peptide fusion (GPS, HEK-293T) (PSI 1-6); higher = more stable. The settings on record: c terminus: a fixed tail appended.
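Further: 24-mer peptide tiles fused after GFP, lentivirally expressed, FACS-sorted into six equal bins by GFP/DsRed ratio, decoded by Illumina sequencing, PSI is the read-weighted mean bin number.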

For RVNEKEIVRLRTIGELLAPAAPFD [WSB1], the protein stability index by setting is: (treatment: DMSO) 3.44 ± 0.2; (treatment: MLN4924 1 uM, 8 h) 3.5 ± 0.21.

LCKDCQVIDGRNVTVTDVDIVFSK [TPPP]: the protein stability index reads like this: (treatment: DMSO) 2.89 ± 0.28; (treatment: MLN4924 1 uM, 8 h) 3.3 ± 0.47.

Turning to LWILHLLLECYIQYHHSKIRNRGY [TMEM192], the protein stability index was 2.61 ± 0.51 (treatment: DMSO) and 2.49 ± 0.32 (treatment: MLN4924 1 uM, 8 h).

With QRQKYLSLQQMQELSNILNLSYKQ [NANOGP8], the protein stability index came out at 2.57 ± 0.29 (treatment: DMSO) and 2.69 ± 0.15 (treatment: MLN4924 1 uM, 8 h).

For the sequence LRSQLQTLKQQHQQAVEQIAKAEE [CCDC89], the protein stability index by setting is: (treatment: DMSO) 4.66 ± 0.15; (treatment: MLN4924 1 uM, 8 h) 4.76 ± 0.11.

For the sequence VGEKNCTGPPCDRQWTVSDWGPCS [ADAMTSL2], the protein stability index reads like this: (treatment: DMSO) 3.53 ± 0.3; (treatment: MLN4924 1 uM, 8 h) 3.32 ± 0.66.

For the sequence PELPEGHLEDWLEKRAKRLSSAPS [ZMAT5], the protein stability index was determined as 4.32 ± 0.12 (treatment: DMSO) and 5.14 ± 0.14 (treatment: MLN4924 1 uM, 8 h).

As for GPSRSRHRRRSRERGPYRTRKHAH [CLK3], the protein stability index worked out at 4.92 ± 0.24 (treatment: DMSO) and 4.8 ± 0.38 (treatment: MLN4924 1 uM, 8 h).

On to PSSQSSSGGGRDSSSSILRWLPEK [ELOA2], for which the protein stability index was determined as 4.15 ± 0.12 (treatment: DMSO) and 4.25 ± 0.1 (treatment: MLN4924 1 uM, 8 h).

Take IGNLVKILHGTRGELLLDVAWHPV [RBBP5]: the protein stability index reads like this: (treatment: DMSO) 2.72 ± 0.41; (treatment: MLN4924 1 uM, 8 h) 2.65 ± 0.43.

For the sequence ISSGVVSIWAQNQVENWSAFAPDF [RBBP5], the protein stability index runs as follows: (treatment: DMSO) 2.44 ± 0.3; (treatment: MLN4924 1 uM, 8 h) 2.4 ± 0.25.

PEQVQNEIKSMKKRMSELCIDFNK [NLN]: the protein stability index is 4.11 ± 0.44 (treatment: DMSO) and 4.23 ± 0.52 (treatment: MLN4924 1 uM, 8 h).

Sequence ADQTVLTEDEKKELENLAAMDLEL [CHGB] had a protein stability index (treatment: DMSO) of 5.6 ± 0.28 and a protein stability index (treatment: MLN4924 1 uM, 8 h) of 5.61 ± 0.16.

YERPNVETIKCVVVGDNAVGKTRL [RHOBTB1]: the protein stability index turned out to be 3.71 ± 0.23 (treatment: DMSO) and 3.86 ± 0.21 (treatment: MLN4924 1 uM, 8 h).

Take TGWARKGLGNTWPGASGSAQSLDR [ATP23]: the protein stability index is 4.17 ± 0.26 (treatment: DMSO) and 4.09 ± 0.16 (treatment: MLN4924 1 uM, 8 h).

The sequence VTFGNKQKVLGKALSLIRFPLMTI [BTBD1] gave a protein stability index (treatment: DMSO) of 2.4 ± 0.041 and a protein stability index (treatment: MLN4924 1 uM, 8 h) of 2.4 ± 0.75.

Take REVEQWFATQTEELNKQVVSSSEQ [KRT33B]: the protein stability index by setting is: (treatment: DMSO) 4.98 ± 0.23; (treatment: MLN4924 1 uM, 8 h) 4.87 ± 0.17.

On to EIAPQHRRGLLVSLNELMIVIGIL [SLC2A12], for which the protein stability index by setting is: (treatment: DMSO) 2.07 ± 0.11; (treatment: MLN4924 1 uM, 8 h) 2.33 ± 0.16.

Regarding EVVPIHGRGNFPTLEITLKDIVQT [TENT5C], the protein stability index reads like this: (treatment: DMSO) 3.5 ± 0.31; (treatment: MLN4924 1 uM, 8 h) 3.39 ± 0.27.

For the sequence SPSHSPEHRRTARRTPPGQQRPHP [ELOA2], the protein stability index reads like this: (treatment: DMSO) 5.06 ± 0.18; (treatment: MLN4924 1 uM, 8 h) 5.06 ± 0.22.

Regarding RGVDVSLQGKDAWLPLHYAAWQGH [RIPK4], the protein stability index reads like this: (treatment: DMSO) 2.58 ± 0.42; (treatment: MLN4924 1 uM, 8 h) 2.45 ± 0.29.

For NCEQLCVNVPGSFVCQCYSGYALA [MATN2], the protein stability index is 2.16 ± 0.55 (treatment: DMSO) and 2.34 ± 0.53 (treatment: MLN4924 1 uM, 8 h).

VSPGSPPPPLPNHKYNTTSTSYSP [PLAGL1] registered a protein stability index (treatment: DMSO) of 4.27 ± 0.15 and a protein stability index (treatment: MLN4924 1 uM, 8 h) of 4.21 ± 0.27.

As to GTEQSRGLGHGSTSRGGPWVGTGL [CPOX], the protein stability index runs as follows: (treatment: DMSO) 3.27 ± 0.84; (treatment: MLN4924 1 uM, 8 h) 3.6 ± 0.26.

On to GADNIDVSHPIIYRGAVYADNMEF [FEM1B], for which the protein stability index runs as follows: (treatment: DMSO) 3.11 ± 0.17; (treatment: MLN4924 1 uM, 8 h) 3.21 ± 0.48.

As to EQVFNAVMAWVKYSIQERRPQLPQ [KLHL20], the protein stability index turned out to be 2.75 ± 0.67 (treatment: DMSO) and 2.35 ± 0.68 (treatment: MLN4924 1 uM, 8 h).

Take HLEINPDHPIVETLRQKAEADKND [HSP90AB1]: the protein stability index is, setting by setting: (treatment: DMSO) 5.58 ± 0.2; (treatment: MLN4924 1 uM, 8 h) 5.56 ± 0.1.

For the sequence ASPMSADRVVAFMDHIRIFQEQVE [NR2F2], the protein stability index was 2.8 ± 0.44 (treatment: DMSO) and 3.1 ± 0.29 (treatment: MLN4924 1 uM, 8 h).

On to LKQNFSKSWHDMQTTTAYKKTHET [TPD52L1], for which the protein stability index reads like this: (treatment: DMSO) 3.6 ± 0.25; (treatment: MLN4924 1 uM, 8 h) 3.96 ± 0.24.

For the sequence AGKEAMTSDGYTALHLAARNGHLA [RIPK4], the protein stability index is, setting by setting: (treatment: DMSO) 3.43 ± 0.69; (treatment: MLN4924 1 uM, 8 h) 3.85 ± 0.36.

In the case of IKELYENFCKHNGSKNVFSTFRTP [ATL3], the protein stability index (treatment: DMSO) is 2.24 ± 0.36 and the protein stability index (treatment: MLN4924 1 uM, 8 h) stood at 2.29 ± 0.39.

As for PRLWTTCRDGEVLLRLSKHGPGHE [ACSBG2], the protein stability index is, setting by setting: (treatment: DMSO) 2.4 ± 0.15; (treatment: MLN4924 1 uM, 8 h) 2.21 ± 0.17.

Regarding GSYNGQIGWFPSNYVLEEVDEAAA [NCK2], the protein stability index is 4.65 ± 0.29 (treatment: DMSO) and 4.66 ± 0.36 (treatment: MLN4924 1 uM, 8 h).

On to CRLDYRRPENRSFYLALYKQMSFL [TCF25], for which the protein stability index reads like this: (treatment: DMSO) 2.33 ± 0.6; (treatment: MLN4924 1 uM, 8 h) 2.28 ± 0.66.

For the sequence FRIFIIWAISSWFRRGPAPQDQAG [CLPTM1], the protein stability index runs as follows: (treatment: DMSO) 2.23 ± 0.2; (treatment: MLN4924 1 uM, 8 h) 1.87 ± 0.28.

For the sequence RGRYGPPSRRSENRVVVSGLPPSG [SRSF1], the protein stability index was 4.08 ± 0.14 (treatment: DMSO) and 4.16 ± 0.17 (treatment: MLN4924 1 uM, 8 h).
